Reference: patent publication US10407488B2, “Therapy for treatment or prevention of conditions associated with bleeding or hypocoagulation” (THE REGENTS OF THE UNIVERSITY OF CALIFORNIA, priority 2013, dated 2019)
Values joined by “and” are separate entries in the source; they are usually repeats but may differ in a detail not shown here. Identical values can stand only once.

Experiments:
[1] = tested on: thrombin generation in normal human plasma with rhAPC; experiment: Thrombin generation in normal human plasma in the presence of rhAPC; assay type: biochemical; conditions: human plasma
Experimental: (§1) BU titer values for FVIII antibodies added to FVIII-deficient plasma were determined using a modified Nijmegen Bethesda assay (Barrow and Lollar; JTH 2006, 4:2223-2229). Briefly, antibody was serially diluted in HBS with 0.05% Tween 80 and mixed 1:1 with pooled normal plasma that was supplemented with 100 mM Imidazole, pH 7.0. Samples were incubated at 37° C. for 2 hours then assayed by aPTT with APTT XL reagent (Pacific Hemostasis). A standard curve was derived from a serial dilution of normal plasma into FVIII deficient plasma that was also mixed 1:1 with HBST and incubated at 37° C. for 2 hours. Percent FVIII activity was plotted versus mg/ml of antibody and residual activity of 50% was defined as 1 BU/ml. In addition, endogenous thrombin potential (ETP) assays were performed as described (3). Briefly FVa mutants or saline were added to human or murine plasma (George King Bio-Medical; mouse source, 50% v/v) supplemented with […] corn trypsin inhibitor (Haematologic Technologies), 10 mM CaCl2, 10 μM phospholipid vesicles (80% phosphatidylcholine, 20% phosphatidylserine, prepared as described (6), 0.2 pM soluble tissue factor (Innovin®, Dade Behring), and 0.4 mM Z-Gly-Gly-Arg-AMC (thrombin substrate, Bachem) in HBS. After mixing, 100 μL was transferred to a FluoroNunc microtiter plate at 37° C. to monitor fluorescence (excitation at 360 nm/emission at 460 nm; Gemini EM fluorescent plate reader (Molecular Devices)). Fluorescence time course data were converted to nM thrombin as described (7). ETP, defined as the area under the curve, was determined using Prism 5.04 (Graphpad).
(§2) APC-mediated inactivation of FVa was analyzed in ETP assays and aPTT clotting assays. FVa mutants were incubated with equal volumes of either recombinant human APC (Xigris®) or buffer in human and murine Balb/c plasma.

[2] = tested on: thrombin generation in murine Balb/c plasma with rhAPC; experiment: Thrombin generation in murine Balb/c plasma in the presence of rhAPC; assay type: biochemical, mouse
Experimental: as §1, §2

[3] = tested on: aPTT clotting time in human plasma; experiment: aPTT clotting assay in human plasma with rhAPC; assay type: biochemical; conditions: human plasma
Experimental: as §2
(§3) Plasma (50 μL) was mixed with 50 μL of a PTT reagent (APTT-XL, Pacific Hemostasis) and incubated at 37° C. for 3 minutes in the presence of FVa either with recombinant human APC or buffer. Following addition of 25 μL of 50 mM CaCl2 in HBS, 0.5% BSA, the clotting time was recorded using an ST4 coagulometer (Diagnostica Stago).

[4] = tested on: aPTT clotting time in murine plasma; experiment: aPTT clotting assay in murine plasma with rhAPC; assay type: biochemical, mouse
Experimental: as §2, §3

[5] = tested on: Balb/c mice; experiment: Ex vivo whole blood aPTT after intravenous APC in Balb/c mice; parameters: species or system mouse; conditions: for mean whole blood aPTT clotting time: 2 minutes after intravenous APC 0.5 mg/kg, saline 30 sec
Experimental: Recombinant murine APC was administered intravenously to Balb/c mice by tail vein injection 2 minutes prior to retroorbital blood harvest in siliconized microcapillaries (75 μL) prefilled with 20 μL Sodium-Citrate (3.8%). Whole blood aPTT was performed immediately, whereby 50 μL of blood were mixed with 50 μL of aPTT reagent (APTT-XL, Pacific Hemostasis) and incubated at 37° C. for 3 minutes in the presence of FVa or buffer. Following addition of 25 μL of 130 mM CaCl2 in HBS, 0.5% BSA, the clotting time was recorded using an ST4 coagulometer (Diagnostica Stago).

[6] = tested on: Balb/c mice; experiment: Tail clip bleeding assay, APC-induced bleeding in Balb/c mice; assay type: in vivo, mouse
Experimental: Mice were anesthetized with Isoflurane 3%, placed on temperature controlled heating pads (37° C.), and the distal portion of the tail was cut at 1.5 mm diameter after which the tail was immersed in a predefined volume of 37° C. saline (0.9% NaCl) for 20 minutes. To study effects on bleeding and clot stability, tubes were changed after 10 minutes to collect blood for the first and second 10 minutes separately. Blood loss was determined by the hemoglobin concentration in the saline solution after red cell lysis with 2% acetic acid and measured by absorbance at 490 nm. Using a hemoglobin standard derived from defined blood volumes, blood loss was calculated assuming a hematocrit of 46% and expressed in μL/g body weight. Groups of Balb/c mice were injected intravenously (tail vein) with equal volumes (200 μL) of ^superFVa or saline 2 minutes prior to intravenous injection of rhAPC (Xigris®). Immediately after APC injection tail cut was performed. All agents were diluted in sterile sodium chloride 0.9% for injection (Hospira Inc).

[7] = tested on: Balb/c mice; experiment: Liver laceration bleeding assay, APC-induced bleeding in Balb/c mice; assay type: in vivo; conditions: for mortality rate: APC-induced bleeding after liver laceration
Experimental: Mice were anesthetized with Isofluorane 3% and the abdomen was opened by substernal blunt midline dissection. […] Immediately after laceration mice were positioned prone into a small weighing dish (8 cm diameter) filled with saline (37° C., 13 mL), transferred into the anesthesia chamber which rested on a heating pad (37° C.). Anesthesia was maintained at 3% Isofluorane and dishes were changed after 10 minutes to collect blood for the first and second 10 minutes separately. Blood loss was determined as described for the tail clip model. Groups of Balb/c mice were injected intravenously (tail vein) with equal volumes (200 μL) of ^superFVa or saline 2 minutes prior to intravenous injection of plasma-derived human APC, followed immediately by liver laceration. All agents were diluted in sterile sodium chloride 0.9% for injection (Hospira Inc).

[8] = tested on: thrombin generation in normal human plasma; experiment: Thrombin generation in NHP in the presence of rivaroxaban or apixaban; assay type: biochemical; conditions: dose titration in NHP
Experimental: Thrombin generation or Endogenous Thrombin Potential (ETP) assays were performed as described. Briefly, plasma samples supplemented with CTI, TF, PCPS were preincubated […] in the presence or absence of rivaroxaban, apixaban, Kcentra®, NovoSeven® or ^superFVa. Thrombin generation was initiated by addition of CaCl2 and Z-Gly-Gly-Arg-AMC in HBS/0.5% BSA. The final reaction mixture contained, 50% plasma, 0.725 μM CTI, 0.2 Pm TF, 4 μM PCPS vesicles, 0.5 mM Z-GGR-AMC, 7.6 mM CaCl2 in a total volume of 100 μl. Concentrations of rivaroxaban, apixaban, Kcentra®, NovoSeven® or ^superFVa are indicated in the result section and in the figure legends. Fluorescence was measured at excitation/emission wavelengths of […] using Gemini EM fluorescent plate reader (Molecular Devices). Fluorescence time course data were converted to Nm thrombin as described. ETP, defined as the area under the curve (AUC) and the peak height were determined using Origin software.

[9] = plasma derived human APC 1.25 mg/kg
[10] = concentrations where ^superFVa restores

In the case of “APC: Activated Protein C; recombinant human (Xigris®, Eli Lilly) or plasma-derived human APC”, the “optimal concentration for maximal suppression of ETP” value [1] is reported as 5 nM, the “optimal concentration for maximal suppression of ETP” value [2] is reported as 100 nM and the “optimal concentration for aPTT prolongation to ~100 seconds” value [3] is reported as 10 nM. For the same molecule, the “optimal concentration for aPTT prolongation to ~100 seconds” value [4] was 25 nM, the “mean whole blood aPTT clotting time” value [5] was 67 s and the mean blood loss ([6]; APC 1.25 mg/kg iv, combined 20 minutes after tail clip) was 27 µL/g. It also gave a mean blood loss ([6]; APC 1.25 mg/kg, first 10 minutes after tail clip) of 13.7 µL/g, a mean blood loss ([6]; APC 1.25 mg/kg, second 10 minutes after tail clip) of 13.2 µL/g and a mean blood loss ([6]; APC, first 10 minutes after tail clip) of 13.7 µL/g. For the same molecule, the “dose that resulted in notable bleeding” value ([6]; single intravenous administration, in vivo dose response) was 1.25 mg/kg, the mean blood loss ([6]; wt APC 1.25 mg/kg iv, tail clip) was 27 µL/g and the mean blood loss ([7]; APC 1.25 mg/kg iv, 20 minutes after liver laceration) was 40 µL/g. For the same molecule, the mean blood loss ([7]; APC 1.25 mg/kg iv, 20 minutes after liver laceration, listed as wt APC) was 49 µL/g, the mean blood loss ([7]; APC 1.25 mg/kg, first 10 minutes after liver laceration) was 35.1 µL/g and the mortality rate [7] was 54% and ~50%. The mortality rate ([7]; listed as wt APC) was roughly 40%, the “mice died during the 1st 10 minutes after injury” value [7, 9] was “Four of 13” and the “more mice died during the 2nd 10 minutes” value [7, 9] was “Three”.

O=C(NC[C@H]1CN(c2ccc(N3CCOCC3=O)cc2)C(=O)O1)c1ccc(Cl)s1 [rivaroxaban, Rivaroxaban] was tested, and the “concentration for optimal suppression of ETP” value [8] was 200 nM.

In the case of “FVa: wild-type recombinant human activated Factor V used as comparator [reference compound]”, the “effect on thrombin generation suppressed by APC” value [1, 10] is reported as “did not show effects”, the “effect on thrombin generation suppressed by APC” value [2, 10] is reported as “did not show effects” and the aPTT ([3]; 0.05 U/mL FVa variants, 10 nM APC, ~100 seconds without FVa) is reported as roughly 80 s. For the same molecule, the aPTT ([4]; 5 U/mL FVa variants, APC, ~100 seconds without FVa) was roughly 70 s, the “effect on whole blood aPTT clotting times” value ([5]; 1 nM added to whole blood after iv APC 0.5 mg/kg) was “failed to show a significant effect” and the “mean whole blood aPTT” value ([5]; FVa variant added ex vivo to whole blood drawn after APC 0.5 mg/kg injection) was 50 s.

COc1ccc(-n2nc(C(N)=O)c3c2C(=O)N(c2ccc(N4CCCCC4=O)cc2)CC3)cc1 [apixaban, Apixaban] was tested, and the “concentration for optimal suppression of ETP” value [8] was 200 nM.

B1: murine recombinant wt APC: Recombinant murine APC purified and prepared as previously described (protein)
chain: ANSFLEEMRPGSLERECMEEICDFEEAQEIFQNVEDTLAFWIKYFDGDQCSAPPLDHQCDSPCCGHGTCIDGIGSFSCSCDKGWEGKFCQQELRFQDCRVNNGGCLHYCLEESNGRRCACAPGYELADDHMRCKSTVNFPCGKLGRWIEKKRKILKRDTDLEDELEPDPRIVNGTLTKQGDSPWQAILLDSKKKLACGGVLIHTSWVLTAAHCVEGTKKLTVRLGEYDLRRRDHWELDLDIKEILVHPNYTRSSSDNDIALLRLAQPATLSKTIVPICLPNNGLAQELTQAGQETVVTGWGYQSDRIKDGRRNRTFILTFIRIPLVARNECVEVMKNVVSENMLCAGIIGDTRDACDGDSGGPMVVFFRGTWFLVGLVSWGEGCGHTNNYGIYTKVGSYLKWIHSYIGEKGVSLKSQKL
In the case of B1, the “mean whole blood aPTT clotting time” value [5] is reported as roughly 60 s.
